For one test, the target named is T1, NDM carbapenemase (Klebsiella pneumoniae, UniProt C7C422 29-270).
T1 construct: The antigen in the assays came from NDM-positive strains or from supernatants of expressing cells
In words: sandwich on ArrayTube array as in Example 2; cell supernatant denatured 10 min at 99°C.

For a further test, the target named is T2, VIM carbapenemase (Pseudomonas aeruginosa (strain ATCC …, UniProt A0A0F7KYQ8 21-266)).
T2 construct: The antigen in the assays came from VIM-positive strains or from supernatants of expressing cells
Described as above.

Test [1] deals with T3, OXA-48 carbapenemase (Klebsiella pneumoniae, UniProt Q6XEC0 23-265). The test is described as above.
In test [2] the target is T3, OXA-48 carbapenemase. The experiment in a line: sandwich on ArrayTube array, 1461 capture and biotin-labelled 1281 detector, cultivated cells of clinical strains.

T3 sequence (Q6XEC0 23-265 limits assumed): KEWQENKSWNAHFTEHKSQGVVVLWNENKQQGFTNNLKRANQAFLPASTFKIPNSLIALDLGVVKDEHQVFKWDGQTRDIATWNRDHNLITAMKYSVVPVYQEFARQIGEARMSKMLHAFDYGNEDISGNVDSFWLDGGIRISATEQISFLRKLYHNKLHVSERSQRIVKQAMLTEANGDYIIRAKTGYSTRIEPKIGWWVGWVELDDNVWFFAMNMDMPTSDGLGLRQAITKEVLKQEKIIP
T1 sequence (C7C422 29-270 limits assumed): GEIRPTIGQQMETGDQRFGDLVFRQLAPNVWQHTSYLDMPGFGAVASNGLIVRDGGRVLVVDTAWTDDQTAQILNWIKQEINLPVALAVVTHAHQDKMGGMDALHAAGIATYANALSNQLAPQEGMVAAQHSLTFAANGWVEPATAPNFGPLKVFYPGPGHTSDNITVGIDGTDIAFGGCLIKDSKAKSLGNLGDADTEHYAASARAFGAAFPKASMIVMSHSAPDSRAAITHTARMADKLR

B1: anti-NDM antibody 1121 (antibody, V domains shown)
VH: QVQLQQSEADLVRPGSSVKISCKASGYAFSNSWINWVKQRPGQGLEWIGQINPGDGNTKYNGKFKGKVILTADKSSSTAYMQLSSLTSEDSAVYFCERETPLWSFVYWGRGTLVTVSA
VL: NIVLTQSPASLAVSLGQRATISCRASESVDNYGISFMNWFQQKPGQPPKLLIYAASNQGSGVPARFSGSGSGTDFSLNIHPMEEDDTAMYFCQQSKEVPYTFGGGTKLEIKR
notes: Used as detector antibody, labelled with biotin
Consider B1, for which, in the test with NDM carbapenemase, the binding result is “binds”.

B2: antibody 1721 (SEQ ID Nos: 19 and 23), detector antibody for VIM (antibody, V domains shown)
VH: QVQLQQPGSVLVRPGTSVKLSCKASGYTFTSYWMHWVKQRPGQGLEWIGEIYPNSGKTNYNEKFKGKATLTVDTSSSTAYVALNSLTSEDSAVYYCAKRYSLYDFTLDYWGQGTSVTVSS
VL: DIKMTQSPKSMSMSVGERVTLTCKASENVGTFVSWYQQKLDQSPKLLIYGASKRYTGVPDRFTGSGSATDFTLAISSVQAEDLADYHCGQSFSYPLTFGAGTKLELKR
notes: The detector is labelled with biotin
As for B2, in the test with VIM carbapenemase, the binding result is given as “binds”.

B3: anti-NDM antibody 1041 (antibody, V domains shown)
VH: QVQLKQSGAELARPGASVKLSCKASGYTFRGYGISWVKQRTGQGLEWIGEIYPGSGNTHYNEKFKGKATLTADKSSSTAYMQLSSLTTEDSAVYFCADLGSWFANWGQGTLVTVSA
VL: DIVLTQSPATLSVTPGDSVSLSCRASQSIYNNLHWYQQKSHESPRLLIKYASQSISGIPSRFSGSGSGTDFTLSINSVETEDFGMYFCQQSNSWPYTFGAGTKLELKR
notes: It was selected from a phage display Fab library; Used as capture antibody
Regarding B3, in the test with NDM carbapenemase, the binding result is reported as “binds”.

B4: anti-OXA-48 antibody 1281 (antibody, V domains shown)
VH: DVQLQQSGPEMVKPGASVKISCKAFGYTFSDYYMYWVKQSHGKSLEWIGRVNGNNGDTRYNQKFEGKATLTVDKSSSTAYMELNSLTSEDSAVYYCARGDYLAYWGQGTTLTVSS
VL: NIVLTQSPASLAVSLGQRASISCRAIKSVDSYGTSFMHWYQQKPGQPPKLLIYRASNLESGIPARFSGSGSRTDFTLTINPVEADDVATYYCHQSNEAPYTFGGGTKLEIKR
notes: It was selected from a phage display Fab library
B4: in the test with OXA-48 carbapenemase [1], the binding result is reported as “binds”.

B5: anti-OXA-48 antibody 1461 (antibody, V domains shown)
VH: QVQLKQSGAELGRPGSSVKLSCKTSGYKFKSYGINWVKQRPGQGLEWIGYIYPGSGYIEYNEKFQGEATLTSDTSSSTAYMQLRSLTSEDSAIYFCGRLGDGYFFYAMDYWGQGTSVTVSS
VL: QIVLTQSPTTMAASPGEKITITCSASSSISSNYMHWYQQKPGFSPKLLIYRTSNLGSGVPVRFSGSGSGTSYSLTIGTMEAEDVATYYCQQGSSIPFTFGSGTKLEIKR
notes: Used as capture antibody spotted on the array
Take B5: in the test with OXA-48 carbapenemase [2], the binding result was “binds”.

B6: anti-VIM antibody 1071 (antibody, V domains shown)
VH: QVKLQQSGPELARPGASVKLSCKASGYTFRSYGITWVKQRTGQGLEWIGEIYPESNISYYNEKFKGTATLTTDKSSSTAYMQLSSLTSEDSAVYFCARRDYDGSYIYWGQGTTLTVSS
VL: QIVLTQSPTTMAASPGENITITCSASSSISSNFLHGYQQKPGFSPKLLIYRTSNLASGVPTRFSGSGSGTSYSLTIGTMEAEDVATYYCQQGDSLPRTFGGGTKLEIKR
notes: as for B3
Consider B6, for which the binding result with VIM carbapenemase is “binds”.

For the origin of these results see patent publication WO2016092096A1 (dated 2016).
